Source: patent US20240025984A1 (FLUX THERAPEUTICS, published 2024)

Target: T1, SYNGAP1-nanoluc-alfa-tag-fusion
T1 chain: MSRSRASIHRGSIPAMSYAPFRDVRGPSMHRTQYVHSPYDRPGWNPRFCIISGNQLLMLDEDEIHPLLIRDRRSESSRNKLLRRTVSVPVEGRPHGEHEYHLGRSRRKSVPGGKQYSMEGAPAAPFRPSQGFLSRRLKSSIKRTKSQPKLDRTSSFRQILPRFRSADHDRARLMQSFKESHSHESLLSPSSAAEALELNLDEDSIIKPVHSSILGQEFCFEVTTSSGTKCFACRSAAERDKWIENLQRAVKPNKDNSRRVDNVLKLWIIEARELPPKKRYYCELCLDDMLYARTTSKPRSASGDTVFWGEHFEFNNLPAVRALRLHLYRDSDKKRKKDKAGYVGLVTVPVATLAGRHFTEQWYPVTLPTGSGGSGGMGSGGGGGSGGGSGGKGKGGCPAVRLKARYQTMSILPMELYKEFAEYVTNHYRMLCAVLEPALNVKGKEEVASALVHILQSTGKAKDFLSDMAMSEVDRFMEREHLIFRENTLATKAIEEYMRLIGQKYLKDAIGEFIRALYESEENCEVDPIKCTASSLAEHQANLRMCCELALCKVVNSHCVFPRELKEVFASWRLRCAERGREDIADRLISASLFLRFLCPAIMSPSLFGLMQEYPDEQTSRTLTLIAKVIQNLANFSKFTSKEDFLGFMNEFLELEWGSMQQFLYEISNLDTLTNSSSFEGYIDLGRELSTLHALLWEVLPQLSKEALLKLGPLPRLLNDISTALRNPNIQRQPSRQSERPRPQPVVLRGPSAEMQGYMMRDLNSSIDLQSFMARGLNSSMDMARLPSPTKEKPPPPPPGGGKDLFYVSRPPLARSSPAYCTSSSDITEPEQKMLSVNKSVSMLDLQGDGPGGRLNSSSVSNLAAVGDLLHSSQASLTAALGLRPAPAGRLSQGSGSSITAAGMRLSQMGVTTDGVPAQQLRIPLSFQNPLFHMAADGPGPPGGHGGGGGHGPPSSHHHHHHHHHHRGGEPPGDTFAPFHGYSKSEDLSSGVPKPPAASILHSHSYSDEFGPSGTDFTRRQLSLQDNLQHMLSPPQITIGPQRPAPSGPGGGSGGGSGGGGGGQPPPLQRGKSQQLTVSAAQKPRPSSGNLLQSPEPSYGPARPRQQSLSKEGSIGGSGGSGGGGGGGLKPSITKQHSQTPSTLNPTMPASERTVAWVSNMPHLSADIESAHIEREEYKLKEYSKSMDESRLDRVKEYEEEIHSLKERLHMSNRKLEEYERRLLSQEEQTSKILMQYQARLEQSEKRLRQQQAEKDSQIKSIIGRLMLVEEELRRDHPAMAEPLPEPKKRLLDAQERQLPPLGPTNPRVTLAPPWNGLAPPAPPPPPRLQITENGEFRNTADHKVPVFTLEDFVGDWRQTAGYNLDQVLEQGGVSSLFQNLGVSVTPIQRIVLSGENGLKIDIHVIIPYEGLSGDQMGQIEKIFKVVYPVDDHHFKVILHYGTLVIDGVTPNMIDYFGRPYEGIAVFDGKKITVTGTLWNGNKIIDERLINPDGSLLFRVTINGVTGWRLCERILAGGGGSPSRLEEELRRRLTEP
Experiment: cell-based or functional assay

Binder	increase in SYNGAP1 expression over the control [fold]
FireflyLuciferase-P2A-anti-syngap1_FLX00157-Cezanne (other) MEDAKNIKKGPAPFYPLEDGTAGEQLHKAMKRYALVPGTIAFTDAHIEVDITYAEYFEMSVRLAEAMKRYGLNTNHRIVVCSENSLQFFMPVLGALFIGVAVAPANDIYNERELLNSMGISQPTVVFVSKKGLQKILNVQKKLPIIQKIIIMDSKTDYQGFQSMYTFVTSHLPPGFNEYDFVPESFDRDKTIALIMNSSGSTGLPKGVALPHRTACVRFSHARDPIFGNQIIPDTAILSVVPFHHGFGMFTTLGYLICGFRVVLMYRFEEELFLRSLQDYKIQSALLVPTLFSFFAKSTLIDKYDLSNLHEIASGGAPLSKEVGEAVAKRFHLPGIRQGYGLTETTSAILITPEGDDKPGAVGKVVPFFEAKVVDLDTGKTLGVNQRGELCVRGPMIMSGYVNNPEATNALIDKDGWLHSGDIAYWDEDEHFFIVDRLKSLIKYKGYQVAPAELESILLQHPNIFDAGVAGLPDDDAGELPAAVVVLEHGKTMTEKEIVDYVASQVTTAKKLRGGVVFVDEVPKGLTGKLDARKIREILIKAKKGGKIAVTRLKGSGATNFSLLKQAGDVEENPGPRSGTGSSGQVQLVESGGGLVQAGASLRLSCAASERTFGHYAMGWFRQAPGKEREFVATISWKGGTTGYAHSVKGRFTISRDSAKNMVYLQMNSLKPEDTAVYYCAARNTMSGSMSSSAYPYWGQGTQVTVSSGGGGSGGGGSGGGGSGGGGSQVQLVESGGGLVQAGASLRLSCAASERTFGHYAMGWFRQAPGKEREFVATISWKGGTTGYAHSVKGRFTISRDSAKNMVYLQMNSLKPEDTAVYYCAARNTMSGSMSSSAYPYWGQGTQVTVSSGAPGSGPPSFSEGSGGSRTPEKGFSDREPTRPPRPILQRQDDIVQEKRLSRGISHASSSIVSLARSHVSSNGGGGGSNEHPLEMPICAFQLPDLTVYNEDFRSFIERDLIEQSMLVALEQAGRLNWWVSVDPTSQRLLPLATTGDGNCLLHAASLGMWGFHDRDLMLRKALYALMEKGVEKEALKRRWRWQQTQQNKESGLVYTEDEWQKEWNELIKLASSEPRMHLGTNGANCGGVESSEEPVYESLEEFHVFVLAHVLRRPIVVVADTMLRDSGGEAFAPIPFGGIYLPLEVPASQCHRSPLVLAYDQAHFSALVSMEQKENTKEQAVIPLTDSEYKLLPLHFAVDPGKGWEWGKDDSDNVRLASVILSLEVKLHLLHSYMNVKWIPLSSDAQAPLAQ	≥ 2
FireflyLuciferase-P2A-anti-syngap1_FLX00156-Cezanne (other) MEDAKNIKKGPAPFYPLEDGTAGEQLHKAMKRYALVPGTIAFTDAHIEVDITYAEYFEMSVRLAEAMKRYGLNTNHRIVVCSENSLQFFMPVLGALFIGVAVAPANDIYNERELLNSMGISQPTVVFVSKKGLQKILNVQKKLPIIQKIIIMDSKTDYQGFQSMYTFVTSHLPPGFNEYDFVPESFDRDKTIALIMNSSGSTGLPKGVALPHRTACVRFSHARDPIFGNQIIPDTAILSVVPFHHGFGMFTTLGYLICGFRVVLMYRFEEELFLRSLQDYKIQSALLVPTLFSFFAKSTLIDKYDLSNLHEIASGGAPLSKEVGEAVAKRFHLPGIRQGYGLTETTSAILITPEGDDKPGAVGKVVPFFEAKVVDLDTGKTLGVNQRGELCVRGPMIMSGYVNNPEATNALIDKDGWLHSGDIAYWDEDEHFFIVDRLKSLIKYKGYQVAPAELESILLQHPNIFDAGVAGLPDDDAGELPAAVVVLEHGKTMTEKEIVDYVASQVTTAKKLRGGVVFVDEVPKGLTGKLDARKIREILIKAKKGGKIAVTRLKGSGATNFSLLKQAGDVEENPGPRSGTGSSGQVQLVESGGGLVQPGGSLRLACAASGFTFGTHAMHWVRWAPGKGFEWVSTISSGGGGTRYADSVKGRFTISRDNAKNTVYLQMDNLKPEDTAVYYCNSPSNIANDNWGQGTQVTVSSGGGGSGGGGSGGGGSGGGGSQVQLVESGGGLVQPGGSLRLACAASGFTFGTHAMHWVRWAPGKGFEWVSTISSGGGGTRYADSVKGRFTISRDNAKNTVYLQMDNLKPEDTAVYYCNSPSNIANDNWGQGTQVTVSSGAPGSGPPSFSEGSGGSRTPEKGFSDREPTRPPRPILQRQDDIVQEKRLSRGISHASSSIVSLARSHVSSNGGGGGSNEHPLEMPICAFQLPDLTVYNEDFRSFIERDLIEQSMLVALEQAGRLNWWVSVDPTSQRLLPLATTGDGNCLLHAASLGMWGFHDRDLMLRKALYALMEKGVEKEALKRRWRWQQTQQNKESGLVYTEDEWQKEWNELIKLASSEPRMHLGTNGANCGGVESSEEPVYESLEEFHVFVLAHVLRRPIVVVADTMLRDSGGEAFAPIPFGGIYLPLEVPASQCHRSPLVLAYDQAHFSALVSMEQKENTKEQAVIPLTDSEYKLLPLHFAVDPGKGWEWGKDDSDNVRLASVILSLEVKLHLLHSYMNVKWIPLSSDAQAPLAQ	≥ 2
FireflyLuciferase-P2A-anti-syngap1_FLX00152-Cezanne (other) MEDAKNIKKGPAPFYPLEDGTAGEQLHKAMKRYALVPGTIAFTDAHIEVDITYAEYFEMSVRLAEAMKRYGLNTNHRIVVCSENSLQFFMPVLGALFIGVAVAPANDIYNERELLNSMGISQPTVVFVSKKGLQKILNVQKKLPIIQKIIIMDSKTDYQGFQSMYTFVTSHLPPGFNEYDFVPESFDRDKTIALIMNSSGSTGLPKGVALPHRTACVRFSHARDPIFGNQIIPDTAILSVVPFHHGFGMFTTLGYLICGFRVVLMYRFEEELFLRSLQDYKIQSALLVPTLFSFFAKSTLIDKYDLSNLHEIASGGAPLSKEVGEAVAKRFHLPGIRQGYGLTETTSAILITPEGDDKPGAVGKVVPFFEAKVVDLDTGKTLGVNQRGELCVRGPMIMSGYVNNPEATNALIDKDGWLHSGDIAYWDEDEHFFIVDRLKSLIKYKGYQVAPAELESILLQHPNIFDAGVAGLPDDDAGELPAAVVVLEHGKTMTEKEIVDYVASQVTTAKKLRGGVVFVDEVPKGLTGKLDARKIREILIKAKKGGKIAVTRLKGSGATNFSLLKQAGDVEENPGPRSGTGSSGQVQLVESGGGLVQPGGSLRLSCAASGFSFSNFPMMWVRQAPGKGREWVADINQDGRNTYYADSVKGRFTISRDNAKTTVYLQMNNLNPEDTAVYYCQAIRTTTHFDSWGQGTQVTVSSGAPGSGPPSFSEGSGGSRTPEKGFSDREPTRPPRPILQRQDDIVQEKRLSRGISHASSSIVSLARSHVSSNGGGGGSNEHPLEMPICAFQLPDLTVYNEDFRSFIERDLIEQSMLVALEQAGRLNWWVSVDPTSQRLLPLATTGDGNCLLHAASLGMWGFHDRDLMLRKALYALMEKGVEKEALKRRWRWQQTQQNKESGLVYTEDEWQKEWNELIKLASSEPRMHLGTNGANCGGVESSEEPVYESLEEFHVFVLAHVLRRPIVVVADTMLRDSGGEAFAPIPFGGIYLPLEVPASQCHRSPLVLAYDQAHFSALVSMEQKENTKEQAVIPLTDSEYKLLPLHFAVDPGKGWEWGKDDSDNVRLASVILSLEVKLHLLHSYMNVKWIPLSSDAQAPLAQ	≥ 2
FireflyLuciferase-P2A-anti-syngap1_FLX00153-Cezanne (other) MEDAKNIKKGPAPFYPLEDGTAGEQLHKAMKRYALVPGTIAFTDAHIEVDITYAEYFEMSVRLAEAMKRYGLNTNHRIVVCSENSLQFFMPVLGALFIGVAVAPANDIYNERELLNSMGISQPTVVFVSKKGLQKILNVQKKLPIIQKIIIMDSKTDYQGFQSMYTFVTSHLPPGFNEYDFVPESFDRDKTIALIMNSSGSTGLPKGVALPHRTACVRFSHARDPIFGNQIIPDTAILSVVPFHHGFGMFTTLGYLICGFRVVLMYRFEEELFLRSLQDYKIQSALLVPTLFSFFAKSTLIDKYDLSNLHEIASGGAPLSKEVGEAVAKRFHLPGIRQGYGLTETTSAILITPEGDDKPGAVGKVVPFFEAKVVDLDTGKTLGVNQRGELCVRGPMIMSGYVNNPEATNALIDKDGWLHSGDIAYWDEDEHFFIVDRLKSLIKYKGYQVAPAELESILLQHPNIFDAGVAGLPDDDAGELPAAVVVLEHGKTMTEKEIVDYVASQVTTAKKLRGGVVFVDEVPKGLTGKLDARKIREILIKAKKGGKIAVTRLKGSGATNFSLLKQAGDVEENPGPRSGTGSSGQLQLVESGGGLVQPGESLRLSCAASGFTFSNYRMYWVRMAPGKGLEWVSDIDRSGTYTYYADSVKGRFAISRDNAKNTVYLQMNSLKPEDTAVYYCAADRRLIVDLTPEVYDHWGQGTQVTVSSGAPGSGPPSFSEGSGGSRTPEKGFSDREPTRPPRPILQRQDDIVQEKRLSRGISHASSSIVSLARSHVSSNGGGGGSNEHPLEMPICAFQLPDLTVYNEDFRSFIERDLIEQSMLVALEQAGRLNWWVSVDPTSQRLLPLATTGDGNCLLHAASLGMWGFHDRDLMLRKALYALMEKGVEKEALKRRWRWQQTQQNKESGLVYTEDEWQKEWNELIKLASSEPRMHLGTNGANCGGVESSEEPVYESLEEFHVFVLAHVLRRPIVVVADTMLRDSGGEAFAPIPFGGIYLPLEVPASQCHRSPLVLAYDQAHFSALVSMEQKENTKEQAVIPLTDSEYKLLPLHFAVDPGKGWEWGKDDSDNVRLASVILSLEVKLHLLHSYMNVKWIPLSSDAQAPLAQ	≥ 2
